The labels stand for the following.
B1: CCND1 dsDNA (dsDNA)
DNA 1: CAGTAGCAGCGAGCAGCAGAGTCCGCACGCTCCGGCGAGGGGCAGAAGAGCGCGAGGGAGCGCGGGGCAGCAGAAGCGAGAGCCG
DNA 2: CGGCTCTCGCTTCTGCTGCCCCGCGCTCCCTCGCGCTCTTCTGCCCCTCGCCGGAGCGTGCGGACTCTGCTGCTCGCTGCTACTG
B2: WDR74 dsDNA (dsDNA)
DNA 1: CGTTCCTGGAAGTACTGCAATACCAGGTCGATGCGTGGAGTGGACGGAGCAAGCTCCTATTCCATCTCCTATTTCCAAAAATCCA
DNA 2: TGGATTTTTGGAAATAGGAGATGGAATAGGAGCTTGCTCCGTCCACTCCACGCATCGACCTGGTATTGCAGTACTTCCAGGAACG
B3: LINC00869 dsDNA (dsDNA)
DNA 1: TGTAAAGGGTGAGGCATATGAGGCTGCGGCGGGGCGGAGGGGCGTGAGCTTATACTTATGTTTATCTGGCAGAAGAAATGTTATG
DNA 2: CATAACATTTCTTCTGCCAGATAAACATAAGTATAAGCTCACGCCCCTCCGCCCCGCCGCAGCCTCATATGCCTCACCCTTTACA

Experimental findings from paper PMC10864110 are described below.

The target of this data set is GST-PC4 WT (Homo sapiens, UniProt P53999 2-127). The data set can be described thus: EMSA.
For B1, the binding result was “no binding”.

As for B2, the binding result is given as “no binding”. In the case of B3 it was “no binding”.
